The chains are these.
B1: OR4K15 (parent)
chain: GUUAACGGUCAUAGGCCAUGGAAACUAGGAGCACCAUUUCGCUGCCAGUGAAGAAAUGAACAAAGAAAAUCUGGGCCAGGCAGGCAUCAAAAGAAAUAGUCUUGCGCUCAACCAGAAAGUCUGUAAUCAUUUUAAGGGUA

In the data set the parent is B1. As to the kind of experiment: self-cleavage, relative activity (ratio to wild type); higher = more cleavage; in vitro, sequencing; the parent is a self-cleaving ribozyme.
As to GUUAACGGUCAUAGGCCAUGGAAACUAGGAGCACCAUUUCGCUGCCAGUGAAGAAAUGAACAAAGAAAAUCUGGGCCAGGCAGGCGUCAAAAGAAAUAGUCUUGCGCUCAACCAGAAAGCCUGUAAUCAUUUUAAGGGUA [A86G U120C], the self-cleavage is 0.35.

With GUUAACGGUCAUAGGCCAUGGAAACUAGGAGCACCAUUUCGCUGCCAGUGAAGAAAUGAACAAAGAAAAUCUGGGCCAGGCAGGCGUCAAAAGAAAUAGUCUUGCGCCCAACCAGAAAGUCUGUAAUCAUUUUAAGGGUA [A86G U108C], the self-cleavage amounted to 0.02.

For GUUAACGGUCAUAGGCCAUGGAAACUAGGAGCACCAUUUCGCUGCCAGUGAAGAAAUGAACAAAGAAAAUCUGGGCCAGGCAGGCGUCAAAAGAAAUAGUCUCGCGCUCAACCAGAAAGUCUGUAAUCAUUUUAAGGGUA [A86G U103C], the self-cleavage stood at 0.45.

As to GUUAACGGUCAUAGGCCAUGGAAACUAGGAGCACCAUUUCGCUGCCAGUGAAGAAAUGAACAAAGAAAAUCUGGGCCAGGCAGGCGUCAAAAGAAAUAGUCUAGCGCUCAACCAGAAAGUCUGUAAUCAUUUUAAGGGUA [A86G U103A], the self-cleavage amounted to 0.93.

With GUUAACGGUCAUAGGCCAUGGAAACUAGGAGCACCAUUUCGCUGCCAGUGAAGAAAUGAACAAAGAAAAUCUGGGCCAGGCAGGCGUCAAAAGAAAUAGUCUUGCGCUCAACCAGAAAGUCUGUAAUCAUUUUGAGGGUA [A86G A134G], the self-cleavage was determined as 1.25.

Turning to GUUAACGGUCAUAGGCCAUGGAAACUAGGAGCACCAUUUCGCUGCCAGUGAAGAAAUGAACAAAGAAAAUCUGGGCCAGGCAGGCGUCAAAAGAAAUAGUCGUGCGCUCAACCAGAAAGUCUGUAAUCAUUUUAAGGGUA [A86G U102G], the self-cleavage came out at 0.39.

Regarding GUUAACGGUCAUAGGCCAUGGAAACUAGGAGCACCAUUUCGCUGCCAGUGAAGAAAUGAACAAAGAAAAUCUGGGCCAGGCAGGCGUCAAAAGAAAUAGUCCUGCGCUCAACCAGAAAGUCUGUAAUCAUUUUAAGGGUA [A86G U102C], the self-cleavage was 2.36.

In the case of GUUAACGGUCAUAGGCCAUGGAAACUAGGAGCACCAUUUCGCUGCCAGUGAAGAAAUGAACAAAGAAAAUCUGGGCCAGGCAGGCGUCAAAAGAAAUAGUCUUGCGCUCAAACAGAAAGUCUGUAAUCAUUUUAAGGGUA [A86G C112A], the self-cleavage amounted to 0.

Consider GUUAACGGUCAUAGGCCAUGGAAACUAGGAGCACCAUUUCGCUGCCAGUGAAGAAAUGAACAAAGAAAAUCUGGGCCAGGCAGGCGUCAAAAGAAAUAGUCUUACGCUCAACCAGAAAGUCUGUAAUCAUUUUAAGGGUA [A86G G104A], for which the self-cleavage turned out to be 0.02.

As to GUUAACGGUCAUAGGCCAUGGAAACUAGGAGCACCAUUUCGCUGCCAGUGAAGAAAUGAACAAAGAAAAUCUGGGCCAGGCAGGCGCCAAAAGAAAUAGUCUUGCGCUCAACCAGAAAGUCUGUAAUCAUUUUAAGGGUA [A86G U87C], the self-cleavage stood at 0.87.

For the variant GUUAACGGUCAUAGGCCAUGGAAACUAGGAGCACCAUUUCGCUGCCAGUGAAGAAAUGAACAAAGAAAAUCUGGGCCAGGCAGGCGUCAAAAGAAAUAGUCUUGCGCUUAACCAGAAAGUCUGUAAUCAUUUUAAGGGUA [A86G C109U], the self-cleavage came to 0.22.

As to GUUAACGGUCAUAGGCCAUGGAAACUAGGAGCACCAUUUCGCUGCCAGUGAAGAAAUGAACAAAGAAAAUCUGGGCCAGGCAGGCGUCAAAAGAAAUAGUCUUGCGCUCAACCAGAAUGUCUGUAAUCAUUUUAAGGGUA [A86G A118U], the self-cleavage worked out at 0.52.

For GUUAACGGUCAUAGGCCAUGGAAACUAGGAGCACCAUUUCGCUGCCAGUGAAGAAAUGAACAAAGAAAAUCUGGGCCAGGCAGGCGUCAAAAGAAAUAGUCUUGCGCUCAACCAAAAAGUCUGUAAUCAUUUUAAGGGUA [A86G G115A], the self-cleavage was 0.14.

For the variant GUUAACGGUCAUAGGCCAUGGAAACUAGGAGCACCAUUUCGCUGCCAGUGAAGAAAUGAACAAAGAAAAUCUGGGCCAGGCAGGCGUCAAAAGAAAUAGUCUUGCGCUCAACCAGAAAGUCUGUAAUCAUUUUAAGAGUA [A86G G137A], the self-cleavage amounted to 1.83.

As for GUUAACGGUCAUAGGCCAUGGAAACUAGGAGCACCAUUUCGCUGCCAGUGAAGAAAUGAACAAAGAAAAUCUGGGCCAGGCAGGCGUCAAAAGAAAAAGUCUUGCGCUCAACCAGAAAGUCUGUAAUCAUUUUAAGGGUA [A86G U97A], the self-cleavage was 0.97.

Consider GUUAACGGUCAUAGGCCAUGGAAACUAGGAGCACCAUUUCGCUGCCAGUGAAGAAAUGAACAAAGAAAAUCUGGGCCAGGCAGGCGUCAAAAGAAAUAGUCUUGCGCUCAACCAGAAAGUCAGUAAUCAUUUUAAGGGUA [A86G U122A], for which the self-cleavage was determined as 1.61.

As for GUUAACGGUCAUAGGCCAUGGAAACUAGGAGCACCAUUUCGCUGCCAGUGAAGAAAUGAACAAAGAAAAUCUGGGCCAGGCAGGCGUCAAAAGAAAUAGUCUUGCGCUCAACCAGAAAGUCUGUAAUCAUUUUAUGGGUA [A86G A135U], the self-cleavage was 2.39.

With GUUAACGGUCAUAGGCCAUGGAAACUAGGAGCACCAUUUCGCUGCCAGUGAAGAAAUGAACAAAGAAAAUCUGGGCCAGGCAGGCGUCAAAAGAAAUAGUCUUGCGCUCAACCAGAAAGUCUGUAAUCAUUUUAAGGGUG [A86G A140G], the self-cleavage came out at 0.77.

Consider GUUAACGGUCAUAGGCCAUGGAAACUAGGAGCACCAUUUCGCUGCCAGUGAAGAAAUGAACAAAGAAAAUCUGGGCCAGGCAGGCGUCAAAAGAAAUAGUCUUGCGCUCAACCAGAAAGUCUGUAAUCAUUUUAAGGGUU [A86G A140U], for which the self-cleavage came to 1.3.

Turning to GUUAACGGUCAUAGGCCAUGGAAACUAGGAGCACCAUUUCGCUGCCAGUGAAGAAAUGAACAAAGAAAAUCUGGGCCAGGCAGGCGUCAAAAGAAAUAGUCUUGCGCUCAACCAGAAAGUCUGUAAUCUUUUUAAGGGUA [A86G A129U], the self-cleavage worked out at 0.57.

GUUAACGGUCAUAGGCCAUGGAAACUAGGAGCACCAUUUCGCUGCCAGUGAAGAAAUGAACAAAGAAAAUCUGGGCCAGGCAGGCGUCAAAAGAAAUAGUCUUGCGCUCAACUAGAAAGUCUGUAAUCAUUUUAAGGGUA [A86G C113U]: the self-cleavage turned out to be 0.03.

Source of the values: the RNAGym collection of RNA variant scans (doi:10.7554/elife.90254).
